This test has as its target T1, human ecto-nucleoside triphosphate diphosphohydrolase-3 (NTPDase3) (human) (UniProt O75355).
T1 sequence (looked up): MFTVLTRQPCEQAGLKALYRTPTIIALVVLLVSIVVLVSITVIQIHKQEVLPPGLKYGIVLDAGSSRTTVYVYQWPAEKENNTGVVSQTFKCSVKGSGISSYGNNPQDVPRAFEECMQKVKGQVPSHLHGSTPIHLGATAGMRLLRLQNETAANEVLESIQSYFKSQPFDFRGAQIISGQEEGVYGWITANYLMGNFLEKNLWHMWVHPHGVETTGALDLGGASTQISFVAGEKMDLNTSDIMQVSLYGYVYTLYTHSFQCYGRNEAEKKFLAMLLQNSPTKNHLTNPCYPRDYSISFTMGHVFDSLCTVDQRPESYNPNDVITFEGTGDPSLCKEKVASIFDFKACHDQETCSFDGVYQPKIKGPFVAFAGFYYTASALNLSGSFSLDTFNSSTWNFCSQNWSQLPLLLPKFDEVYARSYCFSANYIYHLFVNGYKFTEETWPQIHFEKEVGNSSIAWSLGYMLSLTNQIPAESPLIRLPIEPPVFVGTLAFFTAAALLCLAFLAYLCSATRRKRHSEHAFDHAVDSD
The experiment in a line: cell-based or functional assay.

B1: 8E1 hIgG1 (antibody, V domains shown)
VH: EQQLLESGGGLVQPGGSLRLSCAVSGFSLSSYAMGWVRQAPGKGLEFIGIISYSGNTYYASWAKGRFTISKDSSKNTVYLQMNSLRAEDTAVYFCARARYGGYSTNSYYLNIWGPGTLVTVSS
VL: DVQMTQSPSTLSASVGDRVTITCQASENIYRVLAWYQQKPGKRPKLLIYGASNLESGVPSRFSGSGSGTEYTLTISSLQPDDFATYYCQGVVYNSDDSAFGGGTKVEIK
For the molecule B1, the ADCC EC50 (µg/mL), NFAT luciferase reporter Jurkat/hCD16a-158V amounted to 0.047 µg/mL; the ADCC fold increase in relation to parental clone at 1 µg/mL was determined as 1.5 fold; the CDC % of Maximal Cytotoxicity came to 25%; the CDC EC50 worked out at 0.867 µg/mL. Moreover, the CDC: fold increase in the maximal CDC cytotoxicity over the parental 8E1 Hu/Ra chimeric clone came out at 2 fold and the Enzyme Activity Inhibition Capacity: % of Maximal Inhibition amounted to 15%.

These data come from patent publication US20240052061A1.
